The values that follow come from US20030082643A1 (Bristol-Myers Squibb, published 2003).

One test deals with T1, soluble recombinant CD89 (human, UniProt P24071 22-227, limits assumed).
T1 construct: Soluble recombinant CD89, coated on ELISA plates, immobilised on BIAcore chips or in solution; also called sCD89; recombinant soluble CD89 antigen
Description: ELISA. As to the method: Solid-phase ELISA based assays were employed in the binding studies. Briefly, soluble recombinant CD89 in PBS was coated onto 96-well microtiter plates (1 μg/ml) and incubated overnight at room temperature. The plates were then washed with PBS-0.2%Tween-20 (PBST) and blocked with chicken serum albumin in PBST for 1 hour at room temperature. Supernatants from the anti-CD89 producing hybridomas or purified antibody (in PBS) were added to the wells and incubated for 2 hours at room temperature. The plates were washed with PBST as above and then incubated with 50 μl of HRP-conjugated goat-anti-human for 1 hour at room temperature. After washing, 100 μl of ABTS (150 mg 2,2′-azino-bis (3-ethylbenzthiazoline-6-sulfonic acid in 500 ml of 0.1 M citric acid, pH 4.35)/H₂O₂ (10 μl 30% H₂O₂ per 10 ml of ABTS solution) chromagen/substrate solution was added to each well and the samples read with a microplate reader at a wavelength of 405 nm.
Hybridomas which produced human IgG that bound CD89 were further characterized for isotype using ELISA (Human Kappa) (same protocol described above). […] Purified antibodies were extensively dialyzed against 0.3 M sodium carbonate buffer, pH 9.5, for labeling with […] (FITC). […]
Background: An ELISA detects its analyte on a solid surface through an enzyme-linked reagent.

Test [1] deals with T2, human CD89 expressed on cells (human, UniProt P24071 22-287).
T2 construct: whole, on cells; also called FcalphaRI; 2a1.6/CD89 cells
T2 sequence (P24071 22-287): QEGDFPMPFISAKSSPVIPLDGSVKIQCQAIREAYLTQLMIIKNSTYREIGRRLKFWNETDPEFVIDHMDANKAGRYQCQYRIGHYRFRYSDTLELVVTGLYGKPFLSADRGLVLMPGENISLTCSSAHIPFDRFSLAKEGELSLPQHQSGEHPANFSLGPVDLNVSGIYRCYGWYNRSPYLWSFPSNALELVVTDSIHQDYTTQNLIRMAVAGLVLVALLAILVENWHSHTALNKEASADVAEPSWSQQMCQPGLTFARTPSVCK
Description: flow cytometry on 2a1.6/CD89 cells, human PMNL and PMNL of human-CD89 transgenic mice. For orientation: A flow cytometer gives signals particle by particle.

T1 sequence (P24071 22-227 limits assumed): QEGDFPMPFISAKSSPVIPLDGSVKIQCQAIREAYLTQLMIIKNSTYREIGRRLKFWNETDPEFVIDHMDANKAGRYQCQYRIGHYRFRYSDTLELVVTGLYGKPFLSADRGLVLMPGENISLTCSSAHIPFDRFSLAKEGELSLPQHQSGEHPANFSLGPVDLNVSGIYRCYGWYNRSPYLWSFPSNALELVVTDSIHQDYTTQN

B1: human monoclonal antibody (HuMAb) 8.2 (antibody, V domains shown)
VH: QVQLVESGGGVVQPGRSLRLSCAASGFTFSSYAMHWVRQAPGKGLEWVAVISYDGRNKDYADSVKGRFTISRDNSKNTLYLQMNSLRAEDTAVHYCARLDWGYDAFDIWGQGTMVTVSS
VL: not shown
notes: Human IgG1 kappa from hybridoma; also called 8D2
On to B1, for which the binding result (in the test with soluble recombinant CD89; in test [1]) was “binds” in each case.
